# Measurements taken from patent publication US10272135B2, “Apolipoprotein O and fragments thereof for inducing apoptosis in a cancerous cell” (INSERM (INSTITUT NATIONAL DE LA SANTÉ ET DE LA RECHERCHE …, priority 2014, dated 2019).
# B1: ApoO: 198-amino acid apolipoprotein, SEQ ID NO: 1; tested by overexpression from expression vectors or transgene (protein, listed as Homo sapiens)
# chain: MFKVIQRSVGPASLSLLTFKVYAAPKKDSPPKNSVKVDELSLYSVPEGQSKYVEEARSQLEESISQLRHYCEPYTTWCQETYSQTKPKMQSLVQWGLDSYDYLQNAPPGFFPRLGVIGFAGLIGLLLARGSKIKKLVYPPGFMGLAASLYYPQQAIVFAQVSGERLYDWGLRGYIVIEDLWKENFQKPGNVKNSPGTK
# Legend:
# [1] = tested on: Caspase-3; assay: Caspase-3 enzymatic activity in H9c2 cardiac myoblasts; assay type: cell-based
# Description: (§1) After ethical committee approval, all patients in this study gave written consent for sample collection and molecular analysis prior to inclusion. Patients were carefully selected by physicians from the Department of Cardiology, Toulouse University Hospital, prior to coronary by-pass surgery. Bioinformatics. Microarray expression data from human heart samples were downloaded from the GEO repository (GSE1145). This series consisted of 107 myocardial samples collected from patients undergoing cardiac transplantation whose failure arises from different etiologies (e.g. idiopathic dilated cardiomyopathy, ischemic cardiomyopathy, valvular cardiomyopathy, and hypertrophic cardiomyopathy) and from “normal” organ donors whose hearts cannot be used for transplants. Arrays were intensity normalized and hierarchical clustering (average group linkage, Pearson correlation, threshold r=0.8) was applied to identify groups of co-expressed genes. ApoO expression levels were plotted for the 107 human hearts tested and used to define relevant molecular pathways using both Toppgene and Ingenuity Pathway Analysis (Ingenuity systems, Redwood City, Calif., USA). ApoO subcellular localization was predicted using Mitopred, mitoprot and YLoc. Animals: All animal Studies followed the INSERM Institute Animal Facility guidelines and were approved by the animal care committees of the INSERM I2MC UMR 1048. All animal procedures were performed according to the guidelines of the French Ministry of Agriculture. Animals were housed at the Toulouse I2MC animal facility in a room lit 12 h per day (6 AM-6 PM) at an ambient temperature of 22+/−1° C. […] All ApoO sequences within the expression vectors were verified by DNA double strand sequencing using ABI PRISM®BigDye™ Terminator version 3.1 Ready reaction cycle sequencing kit (Life Technologies SAS, Villebon sur Yvette) and loaded on an ABI 3130XL DNA sequencing instrument (Life Technologies SAS, Villebon sur Yvette). […]
# [2] = tested on: H9c2 cardiac myoblasts; assay: Lipid profiling (FAME, diglycerides, triglycerides, BODIPY-palmitate) in cardiac myoblasts; assay type: cell-based
# Description: as §1
molecule,measurement,setting,value
B1,activity of Caspase-3,[1]; ApoO cells vs control (FIG. 9g),increase
same,apoptotic effect of increasing doses of palmitate (Caspase-3 activity),[1]; ApoO overexpressing cells vs control (FIG. 9h),dramatically amplified
same,increase of total intracellular fatty acids,[2]; ApoO expressing cells vs control (FIG. 6E),120%
same,accumulation of green fluorescent BODIPY-palmitate,"[2]; ApoO expressing cells, 2 min incubation (FIG. 6D)",rapid accumulation
